From patent publication US20090018093 come the findings set out here.

For the data set, the system named is Immunoglobulin E (IgE) (Homo sapiens), P01854-1. Nature of the data set: filter. The settings on record: RT.
The mark [1] stands for this setting: 2'-OMe/2'-deoxy mix, 3:21 pair changed, DPBS Mg/Ca, 0.1 mg/mL BSA.

Chain of Immunoglobulin E (IgE) (Homo sapiens), P01854-1 (P01854 other isoform, or with tags, fused parts or gaps): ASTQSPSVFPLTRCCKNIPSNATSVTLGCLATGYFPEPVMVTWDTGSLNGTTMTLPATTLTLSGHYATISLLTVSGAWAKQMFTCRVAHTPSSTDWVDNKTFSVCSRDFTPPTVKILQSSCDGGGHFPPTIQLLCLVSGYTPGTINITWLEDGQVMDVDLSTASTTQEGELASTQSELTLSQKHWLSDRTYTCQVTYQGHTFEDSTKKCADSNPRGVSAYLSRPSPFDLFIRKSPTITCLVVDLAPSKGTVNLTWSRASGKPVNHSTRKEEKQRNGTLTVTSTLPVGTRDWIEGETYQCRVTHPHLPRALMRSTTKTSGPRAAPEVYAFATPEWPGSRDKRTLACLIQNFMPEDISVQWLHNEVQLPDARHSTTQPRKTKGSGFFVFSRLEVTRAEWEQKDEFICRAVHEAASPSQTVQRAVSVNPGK

For the sequence AGACUGGGGACCCAUGGGGGUCU [ARC1248], under setting [1], the Kd (in general, a measure of binding affinity in units of concentration) was 38 nM.

Turning to AGACUGGGGACCCAUGGGGGUCU [ARC1249], under setting [1], the Kd was found to be 130 nM.

On to “AGCCNUGGGNGACCCAUNNNGNNGNNGCUN [ARC2972]”, for which the Kd (ARC1666 chemistry + PS 4-5, 3' idT, DPBS Mg/Ca, BSA) amounted to 0.05 nM.

With AGCCUGGGGACCCAUGGGGGG [ARC2345], the Kd (ARC1666 pattern without 3' idT [dI (written G) at 16,18,20, 2'-OMe 1-5,7,10-15,17, deoxy 6,8,9,16,18-21, PS 8/9,15/16,16/17,18/19,20/21, no 3' idT], dPBS + BSA) is 29.3 nM.

AGCCUGGGGACCCAUGGGGGGC [ARC2344]: the Kd (ARC1666 pattern without 3' idT [dI (written G) at 16,18,20, 2'-OMe 1-5,7,10-15,17,22, deoxy 6,8,9,16,18-21, PS 8/9,15/16,16/17,18/19,20/21, no 3' idT], dPBS + BSA) turned out to be 0.41 nM.

For the sequence AGCCUGGGGACCCAUGGGGGGCU [ARC902], the Kd (dRmY (2'-OMe C,U), 7-deaza-dG2 [7-deaza-dG at 2, 2'-OMe C3,C4,U5,C11,C12,C13,U15,C22,U23, A,G 2'-deoxy], DPBS Mg/Ca, 0.1 mg/mL BSA) was 9 nM.

Sequence AGCCUGGGGACCCAUGGGGGGCU [ARC903] gave a Kd (dRmY (2'-OMe C,U), 7-deaza-dG6 [7-deaza-dG at 6, 2'-OMe C3,C4,U5,C11,C12,C13,U15,C22,U23, A,G 2'-deoxy], DPBS Mg/Ca, 0.1 mg/mL BSA) of 14 nM.

For the setting “dRmY (2'-OMe C,U), 7-deaza-dG7 [7-deaza-dG at 7, 2'-OMe C3,C4,U5,C11,C12,C13,U15,C22,U23, A,G 2'-deoxy], DPBS Mg/Ca, 0.1 mg/mL BSA”, AGCCUGGGGACCCAUGGGGGGCU [ARC904] registered a Kd of 8 nM.

On to AGCCUGGGGACCCAUGGGGGGCU [ARC905], for which, for the setting “dRmY (2'-OMe C,U), 7-deaza-dG8 [7-deaza-dG at 8, 2'-OMe C3,C4,U5,C11,C12,C13,U15,C22,U23, A,G 2'-deoxy], DPBS Mg/Ca, 0.1 mg/mL BSA”, the dissociation constant (Kd) is 9 nM.

Turning to AGCCUGGGGACCCAUGGGGGGCU [ARC906], under “dRmY, 7-deaza-dG at G9 [7-deaza-dG: 9, 2'-OMe: 3-5,11-13,15,22,23, deoxy: all A,G], dPBS Ca/Mg + BSA”, the Kd came to 88 nM.

The sequence AGCCUGGGGACCCAUGGGGGGCU [ARC907] came in with a Kd (dRmY (2'-OMe C,U), 7-deaza-dG16 [7-deaza-dG at 16, 2'-OMe C3,C4,U5,C11,C12,C13,U15,C22,U23, A,G 2'-deoxy], DPBS Mg/Ca, 0.1 mg/mL BSA) of 22 nM.

AGCCUGGGGACCCAUGGGGGGCU [ARC908]: the Kd (dRmY, 7-deaza-dG at G17 [7-deaza-dG: 17, 2'-OMe: 3-5,11-13,15,22,23, deoxy: all A,G], dPBS Ca/Mg + BSA) turned out to be 3 nM.

In the case of AGCCUGGGGACCCAUGGGGGGCU [ARC912], the Kd (dRmY, 7-deaza-dG at G21 [7-deaza-dG: 21, 2'-OMe: 3-5,11-13,15,22,23, deoxy: all A,G], dPBS Ca/Mg + BSA) came out at 9 nM.

Regarding AGCCUGGGGACCCAUGGGGGGCU [ARC1250], under “2'-OMe C,U and A1, other A,G deoxy, 3' idT [2'-OMe: 1,3,4,5,11,12,13,15,22,23, 2'-deoxy: 2,6,7,8,9,10,14,16,17,18,19,20,21, 24 = 3' inverted dT], dPBS Ca/Mg + BSA”, the Kd was determined as 11 nM.

Regarding AGCCUGGGGACCCAUGGGGGGCU [ARC1252], the Kd (2'-OMe C,U and G6, other A,G deoxy, 3' idT [2'-OMe: 3,4,5,6,11,12,13,15,22,23, 2'-deoxy: 1,2,7,8,9,10,14,16,17,18,19,20,21, 24 = 3' inverted dT], dPBS Ca/Mg + BSA) is 98 nM.

Take AGCCUGGGGACCCAUGGGGGGCU [ARC1253]: the Kd (2'-OMe C,U and G7, other A,G deoxy, 3' idT [2'-OMe: 3,4,5,7,11,12,13,15,22,23, 2'-deoxy: 1,2,6,8,9,10,14,16,17,18,19,20,21, 24 = 3' inverted dT], dPBS Ca/Mg + BSA) worked out at 2 nM.

For AGCCUGGGGACCCAUGGGGGGCU [ARC1254], the Kd (2'-OMe C,U and G8, other A,G deoxy, 3' idT [2'-OMe: 3,4,5,8,11,12,13,15,22,23, 2'-deoxy: 1,2,6,7,9,10,14,16,17,18,19,20,21, 24 = 3' inverted dT], dPBS Ca/Mg + BSA) is 24 nM.

In turn, AGCCUGGGGACCCAUGGGGGGCU [ARC1255] returned a Kd (2'-OMe G9 and all C,U, rest 2'-deoxy, 3' idT [2'-OMe at 3,4,5,9,11,12,13,15,22,23, 3'-idT at 24], DPBS Mg/Ca, 0.1 mg/mL BSA) of 8 nM.

With AGCCUGGGGACCCAUGGGGGGCU [ARC1256], the Kd (2'-OMe C,U and A10, other A,G deoxy, 3' idT [2'-OMe: 3,4,5,10,11,12,13,15,22,23, 2'-deoxy: 1,2,6,7,8,9,14,16,17,18,19,20,21, 24 = 3' inverted dT], dPBS Ca/Mg + BSA) was 0.4 nM.

In turn, AGCCUGGGGACCCAUGGGGGGCU [ARC1257] yielded an equilibrium dissociation constant (Kd) (2'-OMe A14 and all C,U, rest 2'-deoxy, 3' idT [2'-OMe at 3,4,5,11,12,13,14,15,22,23, 3'-idT at 24], DPBS Mg/Ca, 0.1 mg/mL BSA) of 6 nM.

Consider AGCCUGGGGACCCAUGGGGGGCU [ARC1258], for which the Kd (2'-OMe C,U and G16, other A,G deoxy, 3' idT [2'-OMe: 3,4,5,11,12,13,15,16,22,23, 2'-deoxy: 1,2,6,7,8,9,10,14,17,18,19,20,21, 24 = 3' inverted dT], dPBS Ca/Mg + BSA) amounted to 15 nM.

AGCCUGGGGACCCAUGGGGGGCU [ARC1259] returned a dissociation constant Kd (2'-OMe G17 and all C,U, rest 2'-deoxy, 3' idT [2'-OMe at 3,4,5,11,12,13,15,17,22,23, 3'-idT at 24], DPBS Mg/Ca, 0.1 mg/mL BSA) of 5 nM.

Take AGCCUGGGGACCCAUGGGGGGCU [ARC1260]: the Kd (2'-OMe C,U and G18, other A,G deoxy, 3' idT [2'-OMe: 3,4,5,11,12,13,15,18,22,23, 2'-deoxy: 1,2,6,7,8,9,10,14,16,17,19,20,21, 24 = 3' inverted dT], dPBS Ca/Mg + BSA) was 102 nM.

Consider AGCCUGGGGACCCAUGGGGGGCU [ARC1261], for which the Kd (2'-OMe C,U and G19, other A,G deoxy, 3' idT [2'-OMe: 3,4,5,11,12,13,15,19,22,23, 2'-deoxy: 1,2,6,7,8,9,10,14,16,17,18,20,21, 24 = 3' inverted dT], dPBS Ca/Mg + BSA) is 63 nM.

For AGCCUGGGGACCCAUGGGGGGCU [ARC1262], the Kd (2'-OMe C,U and G20, other A,G deoxy, 3' idT [2'-OMe: 3,4,5,11,12,13,15,20,22,23, 2'-deoxy: 1,2,6,7,8,9,10,14,16,17,18,19,21, 24 = 3' inverted dT], dPBS Ca/Mg + BSA) was 32 nM.

On to AGCCUGGGGACCCAUGGGGGGCU [ARC1263], for which the Kd (2'-OMe C,U and G21, other A,G deoxy, 3' idT [2'-OMe: 3-5,11-13,15,21-23, deoxy: 1,2,6-10,14,16-20, 24 = 3' inverted dT], dPBS Ca/Mg + BSA) turned out to be 64 nM.

Consider AGCCUGGGGACCCAUGGGGGGCU [ARC1264], for which the Kd (2'-OMe A1,G2,G20,G21 and all C,U, rest 2'-deoxy as printed, 3' idT [2'-OMe A1,G2,C3,C4,U5,C11,C12,C13,U15,G20,G21,C22,U23, rest 2'-deoxy, 3' inverted dT at 24], DPBS Mg/Ca, 0.1 mg/mL BSA) worked out at 47 nM.

The sequence AGCCUGGGGACCCAUGGGGGGCU [ARC1332] returned a Kd (2'-OMe G2,A10,A14 and all C,U, rest 2'-deoxy, 3' idT [2'-OMe G2,C3,C4,U5,A10,C11,C12,C13,A14,U15,C22,U23, 3' inverted dT at 24], DPBS Mg/Ca, 0.1 mg/mL BSA) of 0.5 nM.

For the setting “2'-OMe G2,G7,G17 and all C,U, rest 2'-deoxy, 3' idT [2'-OMe G2,C3,C4,U5,G7,C11,C12,C13,U15,G17,C22,U23, 3' inverted dT at 24], DPBS Mg/Ca, 0.1 mg/mL BSA”, AGCCUGGGGACCCAUGGGGGGCU [ARC1333] returned a Kd of 1.5 nM.

For AGCCUGGGGACCCAUGGGGGGCU [ARC1334], the Kd (2'-OMe G2,G7,A10,A14,G17 and all C,U, rest 2'-deoxy, 3' idT [2'-OMe G2,C3,C4,U5,G7,A10,C11,C12,C13,A14,U15,G17,C22,U23, 3' inverted dT at 24], DPBS Mg/Ca, 0.1 mg/mL BSA) amounted to 0.3 nM.

In the case of AGCCUGGGGACCCAUGGGGGGCU [ARC1548], the Kd (ARC1335 chemistry with dI2, 3' idT [2=dI (G parent), 24=3' inverted dT], DPBS Mg/Ca, 0.1 mg/mL BSA) was found to be 3.3 nM.

As to AGCCUGGGGACCCAUGGGGGGCU [ARC1562], the Kd (ARC1335 chemistry with dI16, G17 deoxy as printed, 3' idT [16=dI (G parent), 17=deoxy G, 24=3' inverted dT], DPBS Mg/Ca, 0.1 mg/mL BSA) was found to be 0.6 nM.

With AGCCUGGGGACCCAUGGGGGGCU [ARC1563], the Kd (ARC1335 chemistry with dI17, 3' idT [17=dI (G parent), 24=3' inverted dT], DPBS Mg/Ca, 0.1 mg/mL BSA) came to 2.2 nM.

As for AGCCUGGGGACCCAUGGGGGGCU [ARC1564], the Kd (ARC1335 chemistry with dI18, 3' idT [18=dI (G parent), 24=3' inverted dT], DPBS Mg/Ca, 0.1 mg/mL BSA) stood at 0.5 nM.

Take AGCCUGGGGACCCAUGGGGGGCU [ARC1565]: the Kd (ARC1335 chemistry with dI19 as printed, 3' idT [19=dI (G parent), 24=3' inverted dT], DPBS Mg/Ca, 0.1 mg/mL BSA) was 1.4 nM.

As to AGCCUGGGGACCCAUGGGGGGCU [ARC1566], the Kd (ARC1335 pattern with dI20, 3' idT [dI20 (inosine, parent base G), 3' inverted dT24, rest ARC1335 pattern], dPBS Ca/Mg + BSA) was determined as 0.1 nM.

Turning to AGCCUGGGGACCCAUGGGGGGCU [ARC1567], where the note is “ARC1335 pattern with dI21, 3' idT [dI21 (inosine, parent base G), 3' inverted dT24, rest ARC1335 pattern], dPBS Ca/Mg + BSA”, the Kd was 3.5 nM.

Consider AGCCUGGGGACCCAUGGGGGGCU [ARC2343], for which the Kd (ARC1666 pattern without 3' idT [dI (written G) at 16,18,20, 2'-OMe 1-5,7,10-15,17,22,23, deoxy 6,8,9,16,18-21, PS 8/9,15/16,16/17,18/19,20/21, no 3' idT], dPBS + BSA) amounted to 0.09 nM.

For AGCCUGGGGACCCAUGGGGGGCU [ARC2981], for the setting “ARC1666 pattern plus PS between A14 and U15, 3' idT [dI (written G) at 16,18,20, 2'-OMe 1-5,7,10-15,17,22,23, deoxy 6,8,9,16,18-21, PS 8/9,14/15,15/16,16/17,18/19,20/21, 3' inverted dT left out], dPBS Ca/Mg + BSA”, the Kd is 0.02 nM.
